As usually defined, the EC50 is the concentration that produces a half-maximal response. For orientation: Kd means the concentration at which binding is half-saturated.

The text below walks through data of patent US20250043019A1 (Janssen / Centocor, published 2025).

For assay [1], the target named is T1, human CD79b on the cell surface (human, UniProt P40259 29-229).
T1 sequence: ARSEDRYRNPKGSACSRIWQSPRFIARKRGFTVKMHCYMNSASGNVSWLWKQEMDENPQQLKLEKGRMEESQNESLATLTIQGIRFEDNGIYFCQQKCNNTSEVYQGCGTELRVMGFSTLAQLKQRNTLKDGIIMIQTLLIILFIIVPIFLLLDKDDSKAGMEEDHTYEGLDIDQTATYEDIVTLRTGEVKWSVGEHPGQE
Kind of assay: cell-based or functional assay.

For assay [2], the target named is T1, human CD79b on the cell surface. Kind of assay: cell-based or functional assay. The source holds these as a separate data set.
For assay [3] the target is unchanged. Kind of assay: cell-based or functional assay. The source holds these as a separate data set.
For assay [4] the target is unchanged. Kind of assay: cell-based or functional assay. The source holds these as a separate data set.
The target is the same in assay [5]. Kind of assay: cell-based or functional assay. The source holds these as a separate data set.
Assay [6] has the same target. Kind of assay: cell-based or functional assay. This is another data set of the same source.
Assay [7] has the same target. Nature of the assay: flow cytometry, HBL-1 cells, 1 h 37 C. The method, then:
(§1) All cells were washed with BD stain buffer (BD Biosciences; Cat #554657), centrifuged at 1200 RPM for 3 minutes, with supernatant discarded. Cells were then stained for 20 minutes at 4° C. with BD stain buffer containing AlexaFluor 647 labeled anti-human IgG secondary antibody (Jackson Immuno; Cat #109-606-098) at a 1:200 dilution along with Aqua Fixable Live/Dead stain (Invitrogen; Cat #L34957) at a 1:400 dilution. All cells were washed with BD stain buffer (BD Biosciences; Cat #554657), centrifuged at 1200 RPM for 3 mins, with supernatant discarded. Cells were analyzed using Intellicyt (Sartorius) flow cytometer and mean fluorescent intensity (MFI) was generated using Forcyt software (Sartorius). MFI was graphed and EC50 values generated using GraphPad PRISM v.8. Dose response curves were generated by transforming the x axis values using the formula […]. Data was then graphed using non-linear regression curve fit analysis “log(agonist) vs. response-variable slope (four parameter)”.
Background: A flow cytometer gives signals particle by particle.

For assay [8] the target is unchanged. Kind of assay: flow cytometry, Carnaval cells, 1 h 37 C. The procedure:
as §1

Assay [9] concerns the target T2, cynomolgus monkey CD79b antigen (cynomolgus monkey).
T2 construct: also called cyno CD79b; CD9W1.001
Nature of the assay: SPR Biacore 8k, cyno CD79b injected up to 3000 nM. The procedure: (§2) General Protocol for SPR Affinity Assessment: Affinity assessment of the bispecific trispecific constructs against human CD79b were measure using recombinantly expressed extracellular domain of CD79b short and long isoforms (CD9W7.001 and CD9W8.001, respectively) by Surface Plasmon Resonance (SPR) using a Biacore 8k SPR system (Biacore) at 25° C. in HBSP+ buffer. Cross-reactivity of the same antibody panel was also assessed against cyno and mouse antigens (CD9W1.001 and CD9W105.001, respectively). Briefly, a C1 sensor chip was immobilized with anti-human Fc (target immobilization levels of >400 RU) using vendor recommended amino coupling protocol. […] The association and dissociation phases were measured for 2 or 3 minutes and 30 minutes, respectively.
(§3) The raw binding sensorgrams were processed using Biacore Insight software (Biacore) by double-referencing and the processed sensorgrams were analyzed for cross-reactivity and fitted to a 1:1 Langmuir model to obtain on-rates, off-rates and affinities.
Background: Surface plasmon resonance follows binding to a sensor surface in real time, without labels.

Assay [10] addresses T3, recombinant extracellular domain of human CD79b, short isoform (human, UniProt P40259 29-159).
T3 chain: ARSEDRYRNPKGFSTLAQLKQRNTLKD
Nature of the assay: SPR Biacore 8k, antibody captured by anti-Fc, 25 C. The method, then: as §2, §3

Assay [11] has as its target T4, recombinant extracellular domain of human CD79b, long isoform (human, UniProt P40259 29-159).
T4 construct: also called hu CD79b long
T4 sequence: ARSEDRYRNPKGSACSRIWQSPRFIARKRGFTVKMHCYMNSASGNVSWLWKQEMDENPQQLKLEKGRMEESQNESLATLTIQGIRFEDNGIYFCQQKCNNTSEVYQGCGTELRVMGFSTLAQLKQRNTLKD
Kind of assay: SPR Biacore 8k, antibody captured by anti-Fc, 25 C. The procedure:
as §2, §3

Assay [12] has as its target T1, human CD79b on the cell surface. Kind of assay: flow cytometry, HBL-1 cells, 1 h 37 C; control row of Table 10, same value as Table 8. The method, then: as §1
The target is the same in assay [13]. Nature of the assay: flow cytometry, Carnaval cells, 1 h 37 C; control row of Table 10, same value as Table 8. The procedure:
as §1

Some results are limits rather than exact numbers.

B1: 79C3B646 CD79bxCD3 bispecific antibody (bispecific antibody, human IgG1, lambda, L234A L235A)
heavy: QVQLQQSGPGLVKPSQTLSLTCAISGDSVSSNSATWNWIRQSPSRGLEWLGRTYYRSKWYNDYTVSVKSRITINPDTSKNQFSLQLNSVTPEDTAVYYCTRVDIAFDYWGQGTLVTVSSASTKGPSVFPLAPSSKSTSGGTAALGCLVKDYFPEPVTVSWNSGALTSGVHTFPAVLQSSGLYSLSSVVTVPSSSLGTQTYICNVNHKPSNTKVDKKVEPKSCDKTHTCPPCPAPEAAGGPSVFLFPPKPKDTLMISRTPEVTCVVVSVSHEDPEVKFNWYVDGVEVHNAKTKPREEQYNSTYRVVSVLTVLHQDWLNGKEYKCKVSNKALPAPIEKTISKAKGQPREPQVYTLPPSREEMTKNQVSLSCAVKGFYPSDIAVEWESNGQPENNYKTTPPVLDSDGSFFLVSKLTVDKSRWQQGNVFSCSVMHEALHNRFTQKSLSLSPGK
light: QTVVTQPPSVSEAPRQRVTISCSGSSSNIGNHGVNWYQQLPGKAPKLLIYNDDLLPSGVSDRFSGSTSGTSGSLAISGLQSEDEADYYCAAWDDSLNGVVFGGGTKLTVLGQPKAAPSVTLFPPSSEELQANKATLVCLISDFYPGAVTVAWKADSSPVKAGVETTTPSKQSNNKYAASSYLSLTPEQWKSHRSYSCQVTHEGSTVEKTVAPTECS
chain: EIVLTQSPATLSASPGERVTLSCSASSSVSYMNWYQQKPGQAPRRWIYDSSKLASGVPARFSGSGSGRDYTLTISSLEPEDFAVYYCQQWSRNPPTFGGGTKVEIKGGSEGKSSGSGSESKSTGGSQVQLVQSGAEVKKPGSSVKVSCKASGYTFTRSTMHWVKQAPGQGLEWIGYINPSSAYTNYNQKFQGRVTLTADKSTSTAYMELSSLRSEDTAVYYCASPQVHYDYAGFPYWGQGTLVTVSSEPKSSDKTHTCPPCPAPEAAGGPSVFLFPPKPKDTLMISRTPEVTCVVVSVSHEDPEVKFNWYVDGVEVHNAKTKPREEQYNSTYRVVSVLTVLHQDWLNGKEYKCKVSNKALPAPIEKTISKAKGQPREPQVYTLPPSREEMTKNQVSLWCLVKGFYPSDIAVEWESNGQPENNYKTTPPVLDSDGSFFLYSKLTVDKSRWQQGNVFSCSVMHEALHNHYTQKSLSLSPGK
notes: IgG1 bispecific; CD79b Fab arm plus CD3 scFv-Fc arm; also called 79C3B646 bsAb; CD9B330-N31S x CD3B2030-N106A
For B1, the “IC50, T-cell killing of HBL-1 (Incucyte)” value in [1] is 0.257 nM. For the same molecule, the “IC50, T-cell killing of OCI-Ly10 (Incucyte)” value in assay [2] is 18.3 nM. In [3], the “IC50, CARNAVAL killing (Incucyte)” value was 1.39 nM. The “IC50, Daudi killing (Incucyte)” value in assay [4] amounted to 0.597 nM. Moreover, in assay [5], the “IC50, CARNAVAL killing, 72 h (FACS)” value was 0.29 nM; the “IC50, HBL-1 killing, 72 h (FACS)” value came to 0.73 nM; the “IC50, OCI-LY10 killing, 72 h (FACS)” value is > 100 nM. Besides, in assay [6], the “Cmax (maximum cytotoxicity), donor 1” value is 9%; the “Cmax (maximum cytotoxicity), donor 2” value is 14%; the “Cmax (maximum cytotoxicity), donor 3” value is 35%; the “EC50, autologous B-cell depletion, donor 1” value stood at 40 nM. Besides, in [6], the “EC50, autologous B-cell depletion, donor 2” value came to 6 nM and the “EC50, autologous B-cell depletion, donor 3” value stood at 8 nM. Also, the EC50 in assay [7] worked out at 97 nM. For the same molecule, the EC50 in assay [8] was 44 nM. Further, the Kd in assay [9] was > 3000 nM. Further, in assay [10], the Kd came out at 0.58 nM. The Kd in [11] was determined as 0.022 nM. The EC50 in assay [12] came out at 97 nM. This molecule also displayed an EC50 in assay [13] of 44 nM.
